{
  "source": "patent US20220298218A1",
  "about": "(ANTAG THERAPEUTICS, published 2022)",
  "note": "*1 amine or outer side, *2 acyl side, *3 side chain or, on linkers, in order; H or OH if unused. Where no end group is shown, it is not given here. Side-chain parts run from the residue outwards. [ ]: non-standard residue; d: D form. The star is where a group is joined. C18 diacid = O=C(O)CCCCCCCCCCCCCCCCC(=O)*; C16 diacid = O=C(O)CCCCCCCCCCCCCCC(=O)*; γGlu = O=C(O)[C@H](CCC(=O)[*:2])N[*:1]; Glutaryl = O=C(CCCC(=O)[*:2])[*:1]; Nle = CCCC[C@H](N)C(=O)O; AEEA = NCCOCCOCC(=O)O",
  "data": [
    {"biological_target": "T1, human GIP receptor (human, UniProt P48546 22-466)", "T1 sequence (looked up)": "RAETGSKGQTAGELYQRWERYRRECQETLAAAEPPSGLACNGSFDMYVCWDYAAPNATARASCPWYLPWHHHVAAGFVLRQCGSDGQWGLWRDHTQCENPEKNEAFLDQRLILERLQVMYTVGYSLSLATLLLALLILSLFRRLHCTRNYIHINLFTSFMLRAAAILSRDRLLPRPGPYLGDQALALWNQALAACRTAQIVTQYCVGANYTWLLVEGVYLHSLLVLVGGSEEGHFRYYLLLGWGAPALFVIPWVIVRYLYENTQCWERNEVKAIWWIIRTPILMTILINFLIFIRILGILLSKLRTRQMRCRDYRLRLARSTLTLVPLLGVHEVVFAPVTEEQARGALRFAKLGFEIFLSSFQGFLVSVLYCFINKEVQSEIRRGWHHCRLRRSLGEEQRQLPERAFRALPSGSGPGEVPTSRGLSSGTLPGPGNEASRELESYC", "assay": "cell-based or functional assay", "units": {"cAMP agonism % Emax": "%", "cAMP antagonism": "nM", "cAMP antagonism % inhib": "%"}, "values": [
      {"binder": "EGTFISDYSIA[Nle]DKIK([AEEA-AEEA-γGlu-C18 diacid])QQDFVEWLLAQKPSSGAPPPS-OH", "note": "[AT683]", "cAMP agonism % Emax": 0, "cAMP antagonism": 15.9, "cAMP antagonism % inhib": 93, "cAMP antagonism pIC50": 7.8},
      {"binder": "EGTFISDYSIALDKIK([AEEA-AEEA-γGlu-C18 diacid])QQDFVEWLLAQKPSSGAPPPS-OH (N-terminus assumed; SMILES CC[C@H](C)[C@H](NC(=O)[C@H](CO)NC(=O)[C@H](Cc1ccc(O)cc1)NC(=O)[C@H](CC(=O)O)NC(=O)[C@H](CO)NC(=O)[C@@H](NC(=O)[C@H](Cc1ccccc1)NC(=O)[C@@H](NC(=O)CNC(=O)[C@@H](N)CCC(=O)O)[C@@H](C)O)[C@@H](C)CC)C(=O)N[C@@H](C)C(=O)N[C@@H](CC(C)C)C(=O)N[C@@H](CC(=O)O)C(=O)N[C@@H](CCCCN)C(=O)N[C@H](C(=O)N[C@@H](CCCCNC(=O)COCCOCCNC(=O)COCCOCCNC(=O)CC[C@H](NC(=O)CCCCCCCCCCCCCCCCC(=O)O)C(=O)O)C(=O)N[C@@H](CCC(N)=O)C(=O)N[C@@H](CCC(N)=O)C(=O)N[C@@H](CC(=O)O)C(=O)N[C@@H](Cc1ccccc1)C(=O)N[C@H](C(=O)N[C@@H](CCC(=O)O)C(=O)N[C@@H](Cc1c[nH]c2ccccc12)C(=O)N[C@@H](CC(C)C)C(=O)N[C@@H](CC(C)C)C(=O)N[C@@H](C)C(=O)N[C@@H](CCC(N)=O)C(=O)N[C@@H](CCCCN)C(=O)N1CCC[C@H]1C(=O)N[C@@H](CO)C(=O)N[C@@H](CO)C(=O)NCC(=O)N[C@@H](C)C(=O)N1CCC[C@H]1C(=O)N1CCC[C@H]1C(=O)N1CCC[C@H]1C(=O)N[C@@H](CO)C(=O)O)C(C)C)[C@@H](C)CC)", "note": "[AT682]", "cAMP agonism % Emax": 0, "cAMP antagonism": 13.6, "cAMP antagonism % inhib": 89, "cAMP antagonism pIC50": 7.9},
      {"binder": "[βGlu]GTFISDYSIAMDKIK(C16 diacid)QQDFVNWLLAQKPSSGAPPPS-OH", "note": "[AT676]", "cAMP agonism % Emax": 0, "cAMP antagonism": 2.33, "cAMP antagonism % inhib": 91, "cAMP antagonism pIC50": 8.6},
      {"binder": "Glutaryl-GTFISDYSIAMDKIK(C16 diacid)QQDFVNWLLAQKPSSGAPPPS-OH (SMILES CC[C@H](C)[C@H](NC(=O)[C@H](CO)NC(=O)[C@H](Cc1ccc(O)cc1)NC(=O)[C@H](CC(=O)O)NC(=O)[C@H](CO)NC(=O)[C@@H](NC(=O)[C@H](Cc1ccccc1)NC(=O)[C@@H](NC(=O)CNC(=O)CCCC(=O)O)[C@@H](C)O)[C@@H](C)CC)C(=O)N[C@@H](C)C(=O)N[C@@H](CCSC)C(=O)N[C@@H](CC(=O)O)C(=O)N[C@@H](CCCCN)C(=O)N[C@H](C(=O)N[C@@H](CCCCNC(=O)CCCCCCCCCCCCCCC(=O)O)C(=O)N[C@@H](CCC(N)=O)C(=O)N[C@@H](CCC(N)=O)C(=O)N[C@@H](CC(=O)O)C(=O)N[C@@H](Cc1ccccc1)C(=O)N[C@H](C(=O)N[C@@H](CC(N)=O)C(=O)N[C@@H](Cc1c[nH]c2ccccc12)C(=O)N[C@@H](CC(C)C)C(=O)N[C@@H](CC(C)C)C(=O)N[C@@H](C)C(=O)N[C@@H](CCC(N)=O)C(=O)N[C@@H](CCCCN)C(=O)N1CCC[C@H]1C(=O)N[C@@H](CO)C(=O)N[C@@H](CO)C(=O)NCC(=O)N[C@@H](C)C(=O)N1CCC[C@H]1C(=O)N1CCC[C@H]1C(=O)N1CCC[C@H]1C(=O)N[C@@H](CO)C(=O)O)C(C)C)[C@@H](C)CC)", "note": "[AT677]", "cAMP agonism % Emax": 0, "cAMP antagonism": 0.447, "cAMP antagonism % inhib": 93, "cAMP antagonism pIC50": 9.4},
      {"binder": "EGTFISDYSIAMDKIK([AEEA-AEEA-γGlu-C18 diacid])QQDFVNWLLAQKPSSGAPPPS-OH (N-terminus assumed; SMILES CC[C@H](C)[C@H](NC(=O)[C@H](CO)NC(=O)[C@H](Cc1ccc(O)cc1)NC(=O)[C@H](CC(=O)O)NC(=O)[C@H](CO)NC(=O)[C@@H](NC(=O)[C@H](Cc1ccccc1)NC(=O)[C@@H](NC(=O)CNC(=O)[C@@H](N)CCC(=O)O)[C@@H](C)O)[C@@H](C)CC)C(=O)N[C@@H](C)C(=O)N[C@@H](CCSC)C(=O)N[C@@H](CC(=O)O)C(=O)N[C@@H](CCCCN)C(=O)N[C@H](C(=O)N[C@@H](CCCCNC(=O)COCCOCCNC(=O)COCCOCCNC(=O)CC[C@H](NC(=O)CCCCCCCCCCCCCCCCC(=O)O)C(=O)O)C(=O)N[C@@H](CCC(N)=O)C(=O)N[C@@H](CCC(N)=O)C(=O)N[C@@H](CC(=O)O)C(=O)N[C@@H](Cc1ccccc1)C(=O)N[C@H](C(=O)N[C@@H](CC(N)=O)C(=O)N[C@@H](Cc1c[nH]c2ccccc12)C(=O)N[C@@H](CC(C)C)C(=O)N[C@@H](CC(C)C)C(=O)N[C@@H](C)C(=O)N[C@@H](CCC(N)=O)C(=O)N[C@@H](CCCCN)C(=O)N1CCC[C@H]1C(=O)N[C@@H](CO)C(=O)N[C@@H](CO)C(=O)NCC(=O)N[C@@H](C)C(=O)N1CCC[C@H]1C(=O)N1CCC[C@H]1C(=O)N1CCC[C@H]1C(=O)N[C@@H](CO)C(=O)O)C(C)C)[C@@H](C)CC)", "note": "[AT680]", "cAMP agonism % Emax": 0, "cAMP antagonism": 4.3, "cAMP antagonism % inhib": 93, "cAMP antagonism pIC50": 8.4},
      {"binder": "EGTFISDYSIALDKIK([AEEA-AEEA-γGlu-C18 diacid])QQDFVNWLLEQKPSSGAPPPS-OH (N-terminus assumed; SMILES CC[C@H](C)[C@H](NC(=O)[C@H](CO)NC(=O)[C@H](Cc1ccc(O)cc1)NC(=O)[C@H](CC(=O)O)NC(=O)[C@H](CO)NC(=O)[C@@H](NC(=O)[C@H](Cc1ccccc1)NC(=O)[C@@H](NC(=O)CNC(=O)[C@@H](N)CCC(=O)O)[C@@H](C)O)[C@@H](C)CC)C(=O)N[C@@H](C)C(=O)N[C@@H](CC(C)C)C(=O)N[C@@H](CC(=O)O)C(=O)N[C@@H](CCCCN)C(=O)N[C@H](C(=O)N[C@@H](CCCCNC(=O)COCCOCCNC(=O)COCCOCCNC(=O)CC[C@H](NC(=O)CCCCCCCCCCCCCCCCC(=O)O)C(=O)O)C(=O)N[C@@H](CCC(N)=O)C(=O)N[C@@H](CCC(N)=O)C(=O)N[C@@H](CC(=O)O)C(=O)N[C@@H](Cc1ccccc1)C(=O)N[C@H](C(=O)N[C@@H](CC(N)=O)C(=O)N[C@@H](Cc1c[nH]c2ccccc12)C(=O)N[C@@H](CC(C)C)C(=O)N[C@@H](CC(C)C)C(=O)N[C@@H](CCC(=O)O)C(=O)N[C@@H](CCC(N)=O)C(=O)N[C@@H](CCCCN)C(=O)N1CCC[C@H]1C(=O)N[C@@H](CO)C(=O)N[C@@H](CO)C(=O)NCC(=O)N[C@@H](C)C(=O)N1CCC[C@H]1C(=O)N1CCC[C@H]1C(=O)N1CCC[C@H]1C(=O)N[C@@H](CO)C(=O)O)C(C)C)[C@@H](C)CC)", "note": "[AT689]", "cAMP agonism % Emax": 3, "cAMP antagonism": 10, "cAMP antagonism % inhib": 82, "cAMP antagonism pIC50": 8},
      {"binder": "EGTFISDYSIA[Nle]DKIK([AEEA-AEEA-γGlu-C18 diacid])QQDFVNWLLEQKPSSGAPPPS-OH (N-terminus assumed; SMILES CCCC[C@H](NC(=O)[C@H](C)NC(=O)[C@@H](NC(=O)[C@H](CO)NC(=O)[C@H](Cc1ccc(O)cc1)NC(=O)[C@H](CC(=O)O)NC(=O)[C@H](CO)NC(=O)[C@@H](NC(=O)[C@H](Cc1ccccc1)NC(=O)[C@@H](NC(=O)CNC(=O)[C@@H](N)CCC(=O)O)[C@@H](C)O)[C@@H](C)CC)[C@@H](C)CC)C(=O)N[C@@H](CC(=O)O)C(=O)N[C@@H](CCCCN)C(=O)N[C@H](C(=O)N[C@@H](CCCCNC(=O)COCCOCCNC(=O)COCCOCCNC(=O)CC[C@H](NC(=O)CCCCCCCCCCCCCCCCC(=O)O)C(=O)O)C(=O)N[C@@H](CCC(N)=O)C(=O)N[C@@H](CCC(N)=O)C(=O)N[C@@H](CC(=O)O)C(=O)N[C@@H](Cc1ccccc1)C(=O)N[C@H](C(=O)N[C@@H](CC(N)=O)C(=O)N[C@@H](Cc1c[nH]c2ccccc12)C(=O)N[C@@H](CC(C)C)C(=O)N[C@@H](CC(C)C)C(=O)N[C@@H](CCC(=O)O)C(=O)N[C@@H](CCC(N)=O)C(=O)N[C@@H](CCCCN)C(=O)N1CCC[C@H]1C(=O)N[C@@H](CO)C(=O)N[C@@H](CO)C(=O)NCC(=O)N[C@@H](C)C(=O)N1CCC[C@H]1C(=O)N1CCC[C@H]1C(=O)N1CCC[C@H]1C(=O)N[C@@H](CO)C(=O)O)C(C)C)[C@@H](C)CC)", "note": "[AT690]", "cAMP agonism % Emax": 6, "cAMP antagonism": 15.9, "cAMP antagonism % inhib": 76, "cAMP antagonism pIC50": 7.8}
    ]}
  ]
}
